Experimental data as given in US20230133118A1 (ADAGENE, published 2023).

Tests used:
rat CD137 = target: T1, rat CD137 (rat); assay: not described; the reference is not named in the sentence (monkey and human CD137 in the sentences before)
T1 construct: It was recombinantly expressed in reporter cells for the NFkB assay; also called rodent CD137 receptors (rat)

mouse CD137 [1] = target: T2, mouse CD137 (mouse, UniProt P20334 24-187, limits assumed); assay: as above
T2 construct: It was recombinantly expressed in reporter cells for the NFkB assay; also called rodent CD137 receptors (mouse)
T2 sequence (looked up): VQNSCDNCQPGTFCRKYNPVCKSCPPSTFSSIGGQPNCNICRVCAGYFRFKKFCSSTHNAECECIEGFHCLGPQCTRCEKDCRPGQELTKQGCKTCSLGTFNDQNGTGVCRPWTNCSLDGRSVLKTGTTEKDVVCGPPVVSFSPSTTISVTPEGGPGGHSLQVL

cynomolgus monkey CD137 = cynomolgus monkey CD137 (cynomolgus monkey, UniProt A9YYE7 24-254); assay: cell-based or functional assay
mouse CD137 [2] = target: T2, mouse CD137; assay: cell-based or functional assay
human CD137 = target: T3, human CD137 (human, UniProt Q07011 24-186); assay: surface plasmon resonance (SPR); format not described
T3 construct: also called CD137 receptor; 4-1BB
T3 sequence (Q07011 24-186 limits assumed): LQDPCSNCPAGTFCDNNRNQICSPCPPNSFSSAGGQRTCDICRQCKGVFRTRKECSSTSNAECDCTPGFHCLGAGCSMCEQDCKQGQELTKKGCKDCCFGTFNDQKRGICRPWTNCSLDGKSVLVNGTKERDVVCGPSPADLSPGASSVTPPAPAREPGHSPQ

Sequence of cynomolgus monkey CD137 (A9YYE7 entry or part of it): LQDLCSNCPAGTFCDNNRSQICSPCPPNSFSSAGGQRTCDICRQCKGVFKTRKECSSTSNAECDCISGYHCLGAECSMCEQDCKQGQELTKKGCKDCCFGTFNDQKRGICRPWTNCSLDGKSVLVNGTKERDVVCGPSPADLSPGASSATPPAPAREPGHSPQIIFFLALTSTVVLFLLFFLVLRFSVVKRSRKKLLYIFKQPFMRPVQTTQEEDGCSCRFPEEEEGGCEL

B1: ADG106 (antibody, human IgG4 S228P, kappa, V domains shown)
VH: EVQLVESGGGLVQPGGSLRLSCAASGFSLSTGGVGVGWIRQAPGKGLEWLALIDWADDKYYSPSLKSRLTISRDNSKNTLYLQLNSLRAEDTAVYYCARGGSDTVIGDWFAYWGQGTLVTVSS
VL: DIQLTQSPSSLSASVGDRVTITCRASQSIGSYLAWYQQKPGKAPKLLIYDASNLETGVPSRFSGSGSGTDFTLTISSLQPEDFATYYCQQGYYLWTFGQGTKVEIKR
notes: also called anti-CD137 antibody ADG106; fully human agonistic anti-CD137 monoclonal IgG4 antibody
For B1, the fold lower affinity (rat CD137) was greater than 100 fold, the fold lower affinity (mouse CD137 [1]) was greater than 100 fold and the “EC50 (read off the curve) (NFkB reporter, 293T cells expressing monkey CD137)” value (cynomolgus monkey CD137) was roughly 0.3 µg/mL. The “EC50 (read off the curve) (NFkB reporter, 293T cells expressing mouse CD137)” value (mouse CD137 [2]) was roughly 0.4 µg/mL and the Kd (human CD137) was 3.7 nM.
